In paper PMC11889585, “Characterization of the putative yeast mitochondrial triacylglycerol lipase Tgl2” (The Journal of Biological Chemistry, 2025):

Target: T1, N terminally FLAG-tagged Tgl2 (S. cerevisiae, UniProt P54857 1-326)
T1 construct: Tgl2, S. cerevisiae; FLAG tag inserted at the N terminus of the ORF of Tgl2; the printed primer puts Met-FLAG directly before the second codon (AAA) of Tgl2; also called FLAG-Tgl2; source: S. cerevisiae tgl2Δ cells, coexpressed with HA-Tgl2 from plasmid pYX122; in solubilised mitochondria; not shown: FLAG, N-terminal, kept
T1 sequence (looked up): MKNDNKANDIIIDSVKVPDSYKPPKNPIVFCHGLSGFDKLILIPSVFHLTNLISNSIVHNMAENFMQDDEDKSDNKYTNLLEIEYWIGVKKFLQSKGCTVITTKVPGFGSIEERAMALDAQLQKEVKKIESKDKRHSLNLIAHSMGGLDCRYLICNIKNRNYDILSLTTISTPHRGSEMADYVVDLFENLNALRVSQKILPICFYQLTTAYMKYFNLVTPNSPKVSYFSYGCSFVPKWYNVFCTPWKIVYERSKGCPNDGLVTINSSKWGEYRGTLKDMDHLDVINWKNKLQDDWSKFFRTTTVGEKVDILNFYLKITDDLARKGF
Experiment: native gel or EMSA; antibody shift assay: digitonin-solubilised mitochondria with HA-Tgl2 and FLAG-Tgl2 incubated with 0, 0.5 or 1 μl anti-HA antibody on ice for 30 min, BN-PAGE, immunodecoration with anti-FLAG
Conditions: partners not purified

B1: N terminally hemagglutinin (HA) tagged Tgl2 (natural protein, S. cerevisiae, UniProt P54857 1-326, looked up)
chain: T1 sequence (looked up)
notes: Tgl2, putative mitochondrial triacylglycerol lipase of the intermembrane space, S. cerevisiae; also called HA-Tgl2; native-like HA-Tgl2; source: S. cerevisiae (tgl2Δ, yme1Δ and other deletion strains), overexpressed from plasmid pYX142; in whole cell lysate, crude or isolated mitochondria; not shown: HA, N-terminal, kept
stoichiometry N: ≥ 2
